This passage reports Kd results from US20220112276A1 (Janssen / Centocor, published 2022).

What all share (experiment): SPR, VHH captured by anti-Fc, ECD analyte
A general note: In SPR one partner is held on a chip, and binding of the other changes the refractive index at the surface.

Experiment [1] concerns the target T1, mouse pIgR extracellular domain (ECD) (mouse, UniProt O70570 19-645).
T1 construct: Bought from R&D Systems (Cat 2800-PG-050); also called mpIgR ECD
T1 sequence: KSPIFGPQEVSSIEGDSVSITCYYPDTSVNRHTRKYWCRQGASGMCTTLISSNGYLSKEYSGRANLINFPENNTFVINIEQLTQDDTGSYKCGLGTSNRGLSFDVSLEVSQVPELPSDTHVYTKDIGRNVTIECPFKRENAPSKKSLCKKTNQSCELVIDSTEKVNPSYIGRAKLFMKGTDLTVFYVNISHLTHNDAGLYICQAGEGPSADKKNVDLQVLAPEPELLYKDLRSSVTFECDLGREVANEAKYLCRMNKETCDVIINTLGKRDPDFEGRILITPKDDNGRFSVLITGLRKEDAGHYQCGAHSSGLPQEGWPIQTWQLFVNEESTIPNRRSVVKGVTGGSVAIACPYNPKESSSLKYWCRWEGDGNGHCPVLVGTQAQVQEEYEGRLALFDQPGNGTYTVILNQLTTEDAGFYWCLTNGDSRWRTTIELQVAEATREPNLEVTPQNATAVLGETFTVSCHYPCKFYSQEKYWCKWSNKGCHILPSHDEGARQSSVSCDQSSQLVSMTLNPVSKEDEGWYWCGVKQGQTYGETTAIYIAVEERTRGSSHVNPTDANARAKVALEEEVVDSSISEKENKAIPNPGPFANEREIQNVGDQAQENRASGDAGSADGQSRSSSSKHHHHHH
Put shortly:
(§1)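 Anti-human Fc surface captured VHH at 0.5 ug/ml (~200-300 RU); running buffer HBSP with 100 ug/ml BSA, 30 μL/min. Single-cycle kinetics with ECD injected low to high from 30 nM in 3-fold dilutions, dissociation 30 min. Double-referenced data globally fit to 1:1 Langmuir model for kon, koff, KD.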

The target of experiment [2] is T2, rat pIgR extracellular domain (rat, UniProt P15083 19-643).
T2 construct: extracellular domain
T2 sequence (looked up): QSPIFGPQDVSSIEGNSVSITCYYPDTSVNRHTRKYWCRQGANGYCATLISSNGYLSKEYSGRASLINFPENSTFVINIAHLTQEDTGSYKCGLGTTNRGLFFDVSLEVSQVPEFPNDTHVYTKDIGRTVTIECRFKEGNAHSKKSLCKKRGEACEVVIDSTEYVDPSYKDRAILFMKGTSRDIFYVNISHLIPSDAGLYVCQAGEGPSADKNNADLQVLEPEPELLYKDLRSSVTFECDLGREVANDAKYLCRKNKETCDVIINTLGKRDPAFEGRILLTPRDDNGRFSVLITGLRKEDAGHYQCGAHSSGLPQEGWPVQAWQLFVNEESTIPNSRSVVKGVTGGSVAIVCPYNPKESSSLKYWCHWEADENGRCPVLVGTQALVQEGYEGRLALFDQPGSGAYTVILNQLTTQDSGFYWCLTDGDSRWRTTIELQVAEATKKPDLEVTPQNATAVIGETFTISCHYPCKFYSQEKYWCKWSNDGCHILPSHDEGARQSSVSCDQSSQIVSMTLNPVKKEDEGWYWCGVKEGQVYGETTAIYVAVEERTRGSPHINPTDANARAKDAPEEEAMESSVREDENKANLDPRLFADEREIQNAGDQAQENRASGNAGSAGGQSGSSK
Put shortly: as §1

Experiment [3] addresses T3, cynomolgus monkey pIgR extracellular domain (cynomolgus monkey, UniProt A0A2K5WMU9 19-638).
T3 construct: extracellular domain
Put shortly: as §1

The target in experiment [4] is T4, human pIgR extracellular domain (ECD) (human, UniProt P01833 19-638).
T4 construct: Bought from R&D Systems (Cat 2717-PG-050); also called hpIgR ECD
The essentials: as §1

T3 sequence (A0A2K5WMU9 entry or part of it): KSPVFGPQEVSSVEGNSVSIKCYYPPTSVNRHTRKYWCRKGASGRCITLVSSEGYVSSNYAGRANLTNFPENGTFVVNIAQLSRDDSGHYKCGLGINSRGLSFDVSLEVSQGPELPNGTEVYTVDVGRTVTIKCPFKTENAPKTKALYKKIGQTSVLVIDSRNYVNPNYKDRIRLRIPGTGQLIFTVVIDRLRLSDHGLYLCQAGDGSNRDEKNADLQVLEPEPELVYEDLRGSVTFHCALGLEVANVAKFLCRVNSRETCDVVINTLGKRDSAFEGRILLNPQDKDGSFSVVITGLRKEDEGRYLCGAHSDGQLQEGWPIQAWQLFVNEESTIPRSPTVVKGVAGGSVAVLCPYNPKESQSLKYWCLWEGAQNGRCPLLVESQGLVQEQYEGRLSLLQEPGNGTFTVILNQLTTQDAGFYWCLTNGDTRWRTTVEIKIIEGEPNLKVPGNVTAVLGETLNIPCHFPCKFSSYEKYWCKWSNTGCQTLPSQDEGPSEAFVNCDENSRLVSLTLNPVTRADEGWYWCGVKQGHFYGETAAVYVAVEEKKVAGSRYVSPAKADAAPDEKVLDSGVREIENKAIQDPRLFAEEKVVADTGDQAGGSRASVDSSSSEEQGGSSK
T4 sequence (P01833 other isoform, or with tags, fused parts or gaps): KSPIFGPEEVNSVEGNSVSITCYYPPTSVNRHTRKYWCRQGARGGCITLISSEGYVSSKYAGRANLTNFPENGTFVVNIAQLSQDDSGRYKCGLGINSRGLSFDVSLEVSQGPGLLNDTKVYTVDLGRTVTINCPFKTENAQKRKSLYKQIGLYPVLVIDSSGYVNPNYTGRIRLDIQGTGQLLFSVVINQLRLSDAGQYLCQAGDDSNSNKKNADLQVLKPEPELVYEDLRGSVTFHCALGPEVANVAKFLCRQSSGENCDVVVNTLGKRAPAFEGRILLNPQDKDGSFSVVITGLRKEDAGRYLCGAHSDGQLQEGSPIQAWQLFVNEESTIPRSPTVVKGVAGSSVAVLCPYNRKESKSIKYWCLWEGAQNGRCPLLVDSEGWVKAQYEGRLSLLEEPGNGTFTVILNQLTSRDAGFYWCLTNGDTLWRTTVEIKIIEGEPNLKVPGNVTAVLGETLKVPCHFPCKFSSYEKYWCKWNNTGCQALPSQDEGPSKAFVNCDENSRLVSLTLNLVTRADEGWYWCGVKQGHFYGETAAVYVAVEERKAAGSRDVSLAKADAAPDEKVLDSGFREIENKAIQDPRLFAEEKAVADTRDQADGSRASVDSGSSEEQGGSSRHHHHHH

B1: 01G09R3LS VHH Mono-Fc (Fc fusion)
chain: EVQLVESGGGLVQAGDSLRLSCAASGRTFPTYAMGWFRQAPGKEREFVATIRWSGSTQYKYYADFVKGRFTISRDNAKNTVYLQMDSLKPEDTAVYYCAATTLLTDPRALNAYAYWGQGTQVTVSSSPAPELLGGPSVFLFPPKPKDTLMISRTPEVTCVVVDVSHEDPEVKFNWYVDGVEVHNAKTKPREEQYNSTYRVVSVLTVLHQDWLNGKEYKCKVSNKALPAPIEKTISKAKGQPREPQVYTKPPSREEMTKNQVSLSCLVKGFYPSDIAVEWESNGQPENNYKTTVPVLDSDGSFRLASYLTVDKSRWQQGNVFSCSVMHEALHNHYTQKSLSLSPGK
Usually Kd stands for the constant that tells how readily two partners part at equilibrium. For B1, the Kd is 5.71 nM in experiment [1], 4.27 nM in experiment [2], 10 nM in experiment [3] and 5.77 nM in experiment [4].

B2: 01A07R3LS VHH Mono-Fc (Fc fusion)
chain: QVQLVESGGGLVQAGDSLRLSCAASGRTFPTYAMGWFRQAPGKEREFVATIRWSGSTQYKYYADFVKGRFTISRDNAKNTVYLQMDSLKPEDTAVYYCAATTLLGDPRALNEYAYWGQGTQVTVSSSPAPELLGGPSVFLFPPKPKDTLMISRTPEVTCVVVDVSHEDPEVKFNWYVDGVEVHNAKTKPREEQYNSTYRVVSVLTVLHQDWLNGKEYKCKVSNKALPAPIEKTISKAKGQPREPQVYTKPPSREEMTKNQVSLSCLVKGFYPSDIAVEWESNGQPENNYKTTVPVLDSDGSFRLASYLTVDKSRWQQGNVFSCSVMHEALHNHYTQKSLSLSPGK
As to B2, the Kd is 8.93 nM in experiment [1], 6.85 nM in experiment [2], 10.1 nM in experiment [3] and 28.6 nM in experiment [4].

B3: 01A06R3LS VHH Mono-Fc (Fc fusion)
chain: EVQLVESGGGVVQAEDSLRLSCAASGLPFSSSRMGWFRQAPGKEREFVAAIGWSGRSTYKYYADSVKGRFTVSGDNAKKTLDLQMKDLKPEDTAVYYCAAHPDYYGDPRTSGAYRYWGQGTQVTVSSSPAPELLGGPSVFLFPPKPKDTLMISRTPEVTCVVVDVSHEDPEVKFNWYVDGVEVHNAKTKPREEQYNSTYRVVSVLTVLHQDWLNGKEYKCKVSNKALPAPIEKTISKAKGQPREPQVYTKPPSREEMTKNQVSLSCLVKGFYPSDIAVEWESNGQPENNYKTTVPVLDSDGSFRLASYLTVDKSRWQQGNVFSCSVMHEALHNHYTQKSLSLSPGK
As for B3, the Kd is 2.26 nM in experiment [1], 9.23 nM in experiment [2], 112 nM in experiment [3] and 29 nM in experiment [4].

B4: 01B07R3L VHH Mono-Fc (Fc fusion)
chain: EVQLVESGGGVVQAEDSLRLSCAASGLPFSSSRMGWFRQVPGKEREFVAAIGWSGRSTYRYYDDSVKGRFTVSGDNAKNTLDLQMKGLKPEDTAVYYCAADPNYYGDVRTSGTYQYWGQGTQVTVSSSPAPELLGGPSVFLFPPKPKDTLMISRTPEVTCVVVDVSHEDPEVKFNWYVDGVEVHNAKTKPREEQYNSTYRVVSVLTVLHQDWLNGKEYKCKVSNKALPAPIEKTISKAKGQPREPQVYTKPPSREEMTKNQVSLSCLVKGFYPSDIAVEWESNGQPENNYKTTVPVLDSDGSFRLASYLTVDKSRWQQGNVFSCSVMHEALHNHYTQKSLSLSPGK
B4: the Kd in experiment [1] came out at 3.48 nM; in experiment [2], 8.51 nM; in experiment [3] it was 138 nM; in experiment [4] it was 58.7 nM.

B5: 01E03R3 VHH Mono-Fc (Fc fusion)
chain: QVQLVESGGGLVQTGGSLRLSCAASGRTFSVYRVGWFRQAPGKEREFVAAVIWSGASTYKYAADSVKGRFTISRDNAENTVYLQMNSLKPEDTAVYYCAADPLGLPGPDVRVEGGYRHWGQGTLVTVSSSPAPELLGGPSVFLFPPKPKDTLMISRTPEVTCVVVDVSHEDPEVKFNWYVDGVEVHNAKTKPREEQYNSTYRVVSVLTVLHQDWLNGKEYKCKVSNKALPAPIEKTISKAKGQPREPQVYTKPPSREEMTKNQVSLSCLVKGFYPSDIAVEWESNGQPENNYKTTVPVLDSDGSFRLASYLTVDKSRWQQGNVFSCSVMHEALHNHYTQKSLSLSPGK
B5: the Kd is 10.4 nM in experiment [1], 24.9 nM in experiment [2], 6.14 nM in experiment [3] and 2.95 nM in experiment [4].

B6: 01C12R2 VHH Mono-Fc (Fc fusion)
chain: EVQLVESGGGLVQAGGSLRLSCAASGRTFGSYSMGWFRQAPGKEREFVGAISWSGSSTYKYYEDSVKGRFTISRDNAKNTVPLQMNSLKPEDTGVYFCGGTMERRDPRRTSAYDYWGQGTLVTVSSSPAPELLGGPSVFLFPPKPKDTLMISRTPEVTCVVVDVSHEDPEVKFNWYVDGVEVHNAKTKPREEQYNSTYRVVSVLTVLHQDWLNGKEYKCKVSNKALPAPIEKTISKAKGQPREPQVYTKPPSREEMTKNQVSLSCLVKGFYPSDIAVEWESNGQPENNYKTTVPVLDSDGSFRLASYLTVDKSRWQQGNVFSCSVMHEALHNHYTQKSLSLSPGK
Turning to B6, the dissociation constant Kd amounted to 4.76 nM in experiment [1], 14.1 nM in experiment [2], 23 nM in experiment [3] and 21.4 nM in experiment [4].

B7: 01B04R3L VHH Mono-Fc (Fc fusion)
chain: EVQLVESGGGLVQAGDSLRLSCAASGRTFTTYVMGWFRQAPGKEREFVATIAWSGSTNYKYYADSVKGRFTISRDNAKNTVYLRMNSLKPEDTAVYYCAASTVLTDPRRLNEYANWGQGTLVTVSSSPAPELLGGPSVFLFPPKPKDTLMISRTPEVTCVVVDVSHEDPEVKFNWYVDGVEVHNAKTKPREEQYNSTYRVVSVLTVLHQDWLNGKEYKCKVSNKALPAPIEKTISKAKGQPREPQVYTKPPSREEMTKNQVSLSCLVKGFYPSDIAVEWESNGQPENNYKTTVPVLDSDGSFRLASYLTVDKSRWQQGNVFSCSVMHEALHNHYTQKSLSLSPGK
Take B7: the Kd in experiment [1] turned out to be 9.2 nM; in experiment [2], 4.71 nM; in experiment [3] it was 5.94 nM; in experiment [4], 13.8 nM.

B8: 01B08R2 VHH Mono-Fc (Fc fusion)
chain: EVQLVESGGRLVQAGGSLRLSCAASGLTRSDYAMGWFRQAPGKEREFVATLKWSEGSRFMYRAEDVKGRFTISSGAAKTTVWLDMDALNPEDTAVYYCAAGFNVGFVRRASEYNFWGQGTLVTVSSSPAPELLGGPSVFLFPPKPKDTLMISRTPEVTCVVVDVSHEDPEVKFNWYVDGVEVHNAKTKPREEQYNSTYRVVSVLTVLHQDWLNGKEYKCKVSNKALPAPIEKTISKAKGQPREPQVYTKPPSREEMTKNQVSLSCLVKGFYPSDIAVEWESNGQPENNYKTTVPVLDSDGSFRLASYLTVDKSRWQQGNVFSCSVMHEALHNHYTQKSLSLSPGK
Turning to B8, the Kd in experiment [1] is 586 nM; in experiment [2], 116 nM; in experiment [3], 219 nM; in experiment [4], 1.05 nM.

B9: 02B12R3 VHH Mono-Fc (Fc fusion)
chain: QVQLVESGGGWVQTGGSLRLSCAASGRTVSSYYMGWFRQTPGKEREFVAAISWVGSSTYKYYTDSAKGRFTISRDNAKNTVYLQMNSLKPEDTAVYYCAARPRVGDPRSRYDDDNWGQGTQVTVSSSPAPELLGGPSVFLFPPKPKDTLMISRTPEVTCVVVDVSHEDPEVKFNWYVDGVEVHNAKTKPREEQYNSTYRVVSVLTVLHQDWLNGKEYKCKVSNKALPAPIEKTISKAKGQPREPQVYTKPPSREEMTKNQVSLSCLVKGFYPSDIAVEWESNGQPENNYKTTVPVLDSDGSFRLASYLTVDKSRWQQGNVFSCSVMHEALHNHYTQKSLSLSPGK
Turning to B9, the Kd in experiment [1] was found to be 4.32 nM; in experiment [2] it was 3.44 nM; in experiment [3], 31.5 nM; in experiment [4], 16.6 nM.

B10: 01B12R2 VHH Mono-Fc (Fc fusion)
chain: EVQLVESGGGLVQAGGSLRLSCAASGRTFSSGIMGWFRQAPGKEREFVAAIEWSGGNTYKYYAESVKGRFAISRDNAKTTAYLQMGSLNPEDTALYYCAADESPSRYIDLRRPAPYHYWGQGTLVTVSSSPAPELLGGPSVFLFPPKPKDTLMISRTPEVTCVVVDVSHEDPEVKFNWYVDGVEVHNAKTKPREEQYNSTYRVVSVLTVLHQDWLNGKEYKCKVSNKALPAPIEKTISKAKGQPREPQVYTKPPSREEMTKNQVSLSCLVKGFYPSDIAVEWESNGQPENNYKTTVPVLDSDGSFRLASYLTVDKSRWQQGNVFSCSVMHEALHNHYTQKSLSLSPGK
Regarding B10, the Kd in experiment [1] is 107 nM; in experiment [2] it was 18.2 nM; in experiment [3], 6.54 nM; in experiment [4], 4.48 nM.
